B1: F11 IgA1 polymer (antibody, V domains shown)
VH: QVQLVQSGAEVKRPGSSVRVSCRTSGGSFTSFAISWVRQAPGQGLEWMGRITRILGVPNYAQKFQGRVTITADMPTTTAYLDLTNLRSEDTAVYYCARDSGTSHGDFDYWGQGTLVTVSS
VL: EIVLTQSPVTLSLSPGERATLSCRASQNVINSLVWYQQKPGQAPRLLIYGASNRATGIPARFRGSGSGTDFTLTIDSLEPEDIAVYYCQQRGTWLWSFGQGTKVEIK
B2: F11 IgA2m2 monomer (antibody, V domains shown)
VH: B1 VH
VL: B1 VL
B3: F11 IgA2m2 polymer (antibody, V domains shown)
VH: B1 VH
VL: B1 VL
B4: F11 IgA1 monomer (antibody, V domains shown)
VH: B1 VH
VL: B1 VL

Target: recombinant trimeric HA of A/Puerto Rico/8/1934 (H1N1) (influenza A virus A/Puerto Rico/8/1934 …, UniProt P03452)
Assay: cell-based or functional assay

Sequence of recombinant trimeric HA of A/Puerto Rico/8/1934 (H1N1) (P03452 18-528): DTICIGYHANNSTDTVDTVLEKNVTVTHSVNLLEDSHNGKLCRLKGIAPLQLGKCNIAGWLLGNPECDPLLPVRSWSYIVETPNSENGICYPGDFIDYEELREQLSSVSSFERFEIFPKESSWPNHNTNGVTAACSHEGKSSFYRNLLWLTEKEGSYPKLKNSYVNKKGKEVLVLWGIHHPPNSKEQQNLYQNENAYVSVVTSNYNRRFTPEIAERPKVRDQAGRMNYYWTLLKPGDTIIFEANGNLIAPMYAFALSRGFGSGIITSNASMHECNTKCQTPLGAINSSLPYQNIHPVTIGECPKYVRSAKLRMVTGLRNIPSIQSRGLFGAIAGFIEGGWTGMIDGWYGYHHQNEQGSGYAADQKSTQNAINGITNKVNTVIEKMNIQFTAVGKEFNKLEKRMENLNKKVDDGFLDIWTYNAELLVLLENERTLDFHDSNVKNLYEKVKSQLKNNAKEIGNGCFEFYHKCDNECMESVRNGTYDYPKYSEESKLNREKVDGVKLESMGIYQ

Binder | HI activity, minimum HI concentration, PR8 virus [µg/mL] | NI activity, EC50 (NI-ELLA), PR8 virus [µg/mL] | NT activity, minimum virus-neutralizing concentration, PR8 virus [µg/mL]
B1 | 500 | 0.222 | 25
B2 | 500 | 0.683 | 89.1
B3 | 500 | 0.418 | 50
B4 | 354 | 0.301 | 50
